A short description of this series: label from the status in PepcDB records.

The record followed here is a protein production outcome set (Wang et al. 2014).

As for “MNKPLVVDLDGTLLRSDMLIESVLAYSKKGIRPVFHLPFWLLEGKAILKARLADRVDLSVEVLPYNTEVIDFIKQAKREQRQIVLATGTHKMFAEKIAEHLGLFDLVIATENGINLSARSKRDCLIDQFGEKGFDYIGNSHDDVVVWNAADKTYLADPEPGVKKKMDLQGGVARVFQTRQSSLRTFFRALRPHQWLKNLLLFIPLIASHQLTNITLIADALLAFVLFSMTASSGYLINDLLDLESDRYHPRKRNRPLASGELPILIGLISAPLLFLASLSASLILLSATFTISLVTYYLLSVVYSQYLKKIPLVDTIMLAGLYTVRILAGAFACSIIPTFWILAFSVFFFLSLAMLKRYAELLDLQTKGDTAKTSGRGYYPSDIQIIASLGTASGYLSILVLALYIQDARTIAMYKTHELIWLACPILLFWISRMWMLTHRGQMHDDPVLFAIKDRTSLITATLFACIFFLAILV”, the protein production result is listed as “failed”.

Consider “MNKPTLGIDLDTTLNTLDREWVKRYNEIYKDKLLPSDIKGWDIENYVKPECGKKIYDILKEPHFFRNLGVQPFAETALEELTSIFNIYIVSATHYKVCEDKGNWIKEKFPFISYQNIIFCHNKGLVHLDILIDDNPLNLENFKGNKILFDAHHNKSENRFVRARDWYEAKALCESLKDFL”, for which the protein production entry is given as “failed”.

On to “MNKQLRNNMIVLLFAVILSLILNVAHILLPFMFGPIIASVICVRVFRLEIEWPFWLSQIGLVLLGVQIGSTFTKNVILDIKDDWLTIILITVMLLALALVIAFFFKKIAKVNTETAILSVIPGALSQMLIMAEENKRANIMVVSLTQTSRIIFVVILVPFISYFFRDNGSNGSLEKATTKVLTDAVSIPQILLLALAVFIVYIIMSKINFPTKQLLAPIIVLISWNLITGVTFTLDNYIIASAQVIYMIRIGLQIAKLLDQMKGRIAVAIAFQNVLLILLAFIMVLLISMVSNHSVNELFLGAAPGGMSQIVLVAIETGADVALISSYHIFRIFFILFLIAPLLGHLLKYIDRSHS”, for which the protein production entry is recorded as “failed”.

For the sequence “MNKQQQSMNTNRSAQEMSETSPEYEQKYQQAIDCIENQEYGQAISILDELAGEASRDAKLRYARAVALLSNGEYRRAGTDLAFTVALDRSNLEAYRHLGFVLLTMGKEEAAIKVLEEALRRDPCFVEAWCVLADVHMDLGEHDKALDALDRAHELQPGNAEVHCKLAMYYMSRGDMRGLRAEYEVLREIEPDVAAQIAELLP”, the protein production result was “failed”.

For the sequence “MNKRKMIGAHSALALLALAVSQVHAADPTVQQGREDRAEKAAQKTLAKMTMEEKLAYIGGTGGWDVKPLTNYGVPQIHGADGGVGVRYTSEGNDQGVVYPSGPNLAATFNPRRAIDLGRALGYDTATGGYQFITGPGVNLYRMPYGGRAFEYLSGEDPFLGASLAPGVINGIQSRGVWANAKHYAANDQESNRFNLDQKMPERVLREMSLPAFESSSKNGNVAMMMCAFQKVNGDFACESEHLIAQILKKEWGYKGFVQSDYNAVVHGFEAARAGTDLDMMGYQMNSSVLKPHLDAGDLSAATIDDKVRRILKQIYLYKFDSKAPLTTHNMNSSTSNKVALNAAREGIVLLKNQGDLLPLDKQKVKKIAVVGTLAKYAPPTGFGSANVMASHYVSELSGLQQMAPNAKVEFIDGLSLDPSTSAWNTTDAAGNSVQGMKVEYFSNTNWSGDAAVTRTEQHVDLDWANDKNLPFESNTSTSDPYTTKGSTAGELNGDTSSTSIRYTGKITPTQSGEQVFKVRADGAVRLWVNGKKIIDNGDGKPLPGNSIPPTIPEFAKINLEAGQSYDVKLEYSRRAGYLSTMGGLVGVQLSSASLNAPQDLSGYDAVVVAVGNSNEYEGEGFDHSFDLPEFQNELIQNIAKVNPNTVVTMYGGTGLKMSDWIEQVPVALHAFYPGQNGGQALAEILFGKINPSGKLPISIERNIEDNPAYASFPKFDNQNTLAEMDYKDDLMLGYRGYEKKGIKPLYPFGYGLSYTTFGYSNIKVTPGVAVGNTPIKVSFDLTNTGKVGGSEVAQLYVGQQNPKVERPIKELKGYKKVFLKPGESKRVTIELNDRSLAYFDVKTNQWVVDADTFNLSLGGSSQDIRLNAKLVNSFRQELSTTTSNPLPRSALNSVLVEKPPVKTGGVFQQTVE”, the protein production entry is “failed”.

In the case of “MNKRVVKVEYIFMAFALFFGVLFAVINAPFQDPDEPIHFYRAYQISTGQMFEQKNNSGIGGYLPQNLIKTSENLSEDIKAKSNKKQDINKIKYYLNLPLNKNKVAFNDFRSATIYSDIVYIPQSIGINLAKIFRASALYMMYFGRIANLICWTIIVFFSVKLIPFKKNLMAFLALTPMNLYQAASLSADAMTNSMAFLSIALVLRYAFGEEEAKLTKRQIVTMIIAFTLLAFSKRIYFVMCILFFIIPIKKFNSKKDYIGTFVIMLGACLMSLVTVSVISKILAIKVSAGSYTPGQMEFVLSHPITYIHILLRTFHFKMSFYAISFIGVFGWLDTRLPLNLYLFYGVALVLIALFEHTLIEKNKDRIIMFIVFIINVGLIMSALYVSWTPKAANIIEGIQGRYFIPIIPLLGCFIGVKANKSRNVYSKVVLAISTFTILTYSVLQLLLRFYGIRIL”, the protein production entry is given as “failed”.

In the case of “MNKTLIINAHPKVDDTSSVSIKVFKHFLESYKELISNNETIEQINLYDDVVPMIDKTVLSAWEKQGNGQELTREEQKVTERMSEILQQFKSANTYVIVLPLHNFNIPSKLKDYMDNIMIARETFKYTETGSVGLLKDGRRMLVIQASGGIYTNDDWYTDVEYSHKYLKAMFNFLGIEDYQIVRAQGTAVLDPTEVLQNAYKEVEEAASRLANKYIFSLEE”, the protein production entry is reported as “not failed”.

Take “MNKVLINDTTLRDGEQAAGVVFTLEEKVAIAKFLDTIGVPELEVGIPAMGEEEMRAICAISNLGLKANLLAWNRAVISDIKASVACGMERVHIAIPVSGIQIAAKFHGQWRVSLQRLKDCISFAVDQGLWVAVGGEDSSRADENFLLDVALYAQEWGASRFRFCDTVGVLDPFTTYGKVKLLVSALTIPVEVHTHNDFGMATANALAGIKAGASSVNTTVIGLGERAGNAALEEVVMAIKRIYGVDMGIDTPRLLELSQLVAAASGANVPPWKAIVGENTFAHESGIHAHGVLQNPDTYEPFAPEEVGWERRLVVGKHSGRHSVSNLLEQHGIFLNPEETQSVLDAVRQQSIKKKRSLTTEELLNLVKEQRYSHAAR”: the protein production entry is recorded as “failed”.

As for “MNLDALVSWSRAQFALTAMYHWLFVPLTLGLGVIMAIVETIYYRNGKPEWKRYAQFWQKLFGINFAIGVATGIILEFEFGTNWSNYSLFVGDIFGAPLAIEGILAFFMEATFIAVMFFGWNKVSKGFHLSATWLTIIGASLSAVWILIANAWMQEPVGMTFNPDTMRNEMTDFWALVFSSTAINKFWHTISSCWTLGSVFALGVCGIYLLRKDDKHKDFALKNIKIIAPFGLAASLITAFTGDTSAYNVAQKQPMKLAAMEALYDSGQTDKDGLTADGKGLPLSLFGILNPAKETPQDDKEAFLFNVSVPRVLSVLGTRNPSGYVPGINNILEGGYVKADGTTAIPVDSMMQRGRRAIMALNDYSKAKQAGDMEAALQHKSVIDENFPYFGYSYIQHKNDIVPPVGLTYYSFRIMVGLGMLFILLFLMAWLLSFKPEKFSKMRWFHMIAIVCMPLAWVASQSGWIVAEVGRQPWTIQDLLPVQAAVSKLEAGSVIITFFVFLVLFSALLVAELNIMRKAIKKGPETE”, the protein production result was “failed”.

As to “MNLFRKCLLILGLASPLYLGLGQTSAHAEAVPPLAPTTCQATNLPQPSTAAIRELTPTGTLRVAINTGNYVLATEADDFGPFGISVDIAHLLAKGLGVPSEFTVVQAAAVSFERVSKNLSDIGFFGVDPWRAESVDYTNPYIQIEGAYIVRQDSPILTLADVDRAGIQIVVGKNSVYNLFLDRNIHHAHLVQAPTSPEVTGFMLAHKFPVGAGIRNQLVADMKRYGGLRILSTSFMIIHQAMATGKGRPQGLSYLQSFISELKKSGCIQELITKYAVDDAVVSP”, the protein production entry was “failed”.

Take “MNLFRKISEKLKSYEDWVTEANYYLDEGIYDKAVECYLKALEKKNTNPIDWFNLAYALYHLEKYDSALEAINEALKISPSNIYFAYLKGLIHYKRGEIILAYKYLKKASEKIKNEELFEILGDISVKYGRYEEALKYYLKSYKMANSKNLNALFKAGKIYLLFGDIDKAYDAFNEILQQNPSHECKKIVECMENVVNAINSYEDLNNGLTMIKNKDYIGALKIFNKVLQIDENSDISYYYKSVIAEIFEEYKKALEYIDKSISIFNRSLYYAKKGDILYKLGDEEGAIEAYNKAIKLNSQNPYAYFGLAILYYRKGELEKSSNFFDKVLETYLEELSEEDISALNLYSLIGKAETTGIPKYYHEAMKYVDNLINLENSSRWWYVKGYIYYKLGNYKDAYESFMNALRVNPKDISTLKSLAIVLEKSGKIDEAITTYTKILKIVNSLQFTCEIDNILEKLRSRKPTNLEIPSVLFDIPVMYHKPNITCFYASNLWKYMANNNPIGAYIYLSFIESYISLDEISQMVNDIKSKLSLEMYRYCELIDDYKSDESVLMQIKELLQKLGCML”: the protein production entry was “failed”.

For the sequence “MNLFRSERGALALLLGVSALILLLGLGSRELWGPETRWANIALQMLQSGDYFDPYLKGAPYYDKPLPSYWLITASAWLMGGLGHWSLRLSSVIAAWLSIWLVYLIGERLFHKGTGLIAGWMLATTFYFAFWARVATADVLTVCGVLAAVWWYWRGPEDTRLGRYTVFFLILAATSLLKGLIGFVLPGLILLPHLLSQGRWKRHLNLRLVLALSIAALFYMVPFVLSHLYGAPSYGESGLSLVFRENVVRFFNPFDHVGPIYTYLIYLPAYTLPWAPCWILGLWLAARHWRQLQPNERWLVWALGLLFLFFTASGSRRSYYVLPLVPFAQLLGAWWLNRRLQLRQAVGKPVSRGWPLGFSCAALVMLLVLGVAYPWSNSGGGVMQFSADTRAAASRIAPWNQWRMVMVEIDNKLPMYLQNQGAPFYYVAETADFPRNGSSADFMAWLDKTSGQHWDPQRTLIFVQQKHDEPLMLGYLGEDHQLVRTTPTNGERLAKKPAQGSVAFIPRIPGN”, the protein production entry is “failed”.

“MNLFYRCRFFLFNNKVKNRGRGNKVVTNSASAKACTILFNGNNNTVILGESASLRGCLIIMSGDDHVLEIGAHTSIYKSNIAFEDHHCLISIGDYTTIQENGGISAVEPYSKIIIGKRCMFSVDVDIRNTDSHSIIKLDTGERINPGKNIFIDDKVWLGAYVQVLKGVSIGNNSIVGIRSLVTKDIPSHALAVGVPAKVIKTNVDWREERI”: the protein production entry is reported as “failed”.

For “MNLHTKTWVQRLPVPIDVAWDFFSQPGNLARITPPEMMLKAEGGNAGTAIYEGMKLNFVLYPFMMIPVRWTTEIMKVSKPDFFEDRQLSGPYEQWYHRHLFRDIEGGTEMTDIVEYALPFDLFGEVVEALIVGPRLDEVFEYRRCRVAEILGEMASETRLEHHHHHH”, the protein production result is “not failed”.

As to “MNLIINDKTASSSVGQTIGKAARLNHAHVGYVCGGHGLCQACYITVQEGADCLAPLTDVEKAFLSPRQIAAGGRMACQATIAKEGTVKVLSRPEEVRRMVFSNPFQLIGYAADMGKDTAQQIVPGVQNLIGRIQRGEMGGKDALGDMIESIQGAAGLVVEAIQQGPMALPIPFKEQIADLISKLPLPQIQLPSISLPQLPSISFPQLPFSLPKLPFSLPFLPQQPQATASLEKVTITVQPPAKD”, the protein production entry was “failed”.

In the case of “MNLILTILSALGSFIVTNVDDIFVLMLLFSQARSQAKTGNSGIVSMESKGNRIYPRDIVIGQYLGFALLVLISLLATFGVTLIPDQWVGLLGLIPIYLGVKLFIKGEDEDEGNILSNLNKFNKFYLSVAFITFANGGDNIGIYVPFFSTLNNNQLIITVVTFFIMVAVWCLIGYRLARFRYVSETLEKYGRWIIPIVFIGLGIYIMVENETFRAILSLVN”, the protein production result is on record as “failed”.

For “MNLLRHAVAGLCLVASAGCSGQDVMVRKQSEMETRLEHLHQASTTSGVRLAELSAEVTALRERLAAQGAELEQIKAGQRELQANITERLAQVAPAAGTPSRIEVVSRDGAPREKDGPPDAYLKAFGLYSANNFAGAVEAFQAFLAEHPDSEYAGNALYWIGECHYSRSDLPRALDAFRLVAERYPASTKVPDALLKSGYTLYAMKEPERAREILESLAAKYPRSPAAAKARERLAVATPKKQ”, the protein production entry is recorded as “failed”.
